# Test results taken from patent US20090130105A1 (Biogen, published 2009).
# B1: M13-C06 antibody (antibody, V domains shown)
# VH: EVQLLESGGGLVQPGGSLRLSCAASGFTFSIYRMQWVRQAPGKGLEWVSGISPSGGTTWYADSVKGRFTISRDNSKNTLYLQMNSLRAEDTAVYYCARWSGGSGYAFDIWGQGTMVTVSS
# VL: DIQMTQSPLSLSASVGDRVTITCQASRDIRNYLNWYQQKPGKAPKLLIYDASSLQTGVPSRFGGSGSGTDFSFTIGSLQPEDIATYYCQQFDSLPHTFGQGTKLEIK
# notes: Fully human full-length antibody (ATCC PTA-7444); also called M13.C06.G4.P.agly; M13-C06.G4P.agly
# B2: M13-C06 Fab (Fab, V domains shown)
# VH: B1 VH
# VL: B1 VL
# notes: Fab made by enzymatic digestion of the IgG
# How the values were obtained:
# sIGF-1R(1-903) [1] = target: T1, sIGF-1R(1-903) (human, UniProt P08069 31-933); assay: SEC with static light scattering
# T1 construct: also called soluble IGF-1R ectodomain
# T1 sequence (P08069 31-933): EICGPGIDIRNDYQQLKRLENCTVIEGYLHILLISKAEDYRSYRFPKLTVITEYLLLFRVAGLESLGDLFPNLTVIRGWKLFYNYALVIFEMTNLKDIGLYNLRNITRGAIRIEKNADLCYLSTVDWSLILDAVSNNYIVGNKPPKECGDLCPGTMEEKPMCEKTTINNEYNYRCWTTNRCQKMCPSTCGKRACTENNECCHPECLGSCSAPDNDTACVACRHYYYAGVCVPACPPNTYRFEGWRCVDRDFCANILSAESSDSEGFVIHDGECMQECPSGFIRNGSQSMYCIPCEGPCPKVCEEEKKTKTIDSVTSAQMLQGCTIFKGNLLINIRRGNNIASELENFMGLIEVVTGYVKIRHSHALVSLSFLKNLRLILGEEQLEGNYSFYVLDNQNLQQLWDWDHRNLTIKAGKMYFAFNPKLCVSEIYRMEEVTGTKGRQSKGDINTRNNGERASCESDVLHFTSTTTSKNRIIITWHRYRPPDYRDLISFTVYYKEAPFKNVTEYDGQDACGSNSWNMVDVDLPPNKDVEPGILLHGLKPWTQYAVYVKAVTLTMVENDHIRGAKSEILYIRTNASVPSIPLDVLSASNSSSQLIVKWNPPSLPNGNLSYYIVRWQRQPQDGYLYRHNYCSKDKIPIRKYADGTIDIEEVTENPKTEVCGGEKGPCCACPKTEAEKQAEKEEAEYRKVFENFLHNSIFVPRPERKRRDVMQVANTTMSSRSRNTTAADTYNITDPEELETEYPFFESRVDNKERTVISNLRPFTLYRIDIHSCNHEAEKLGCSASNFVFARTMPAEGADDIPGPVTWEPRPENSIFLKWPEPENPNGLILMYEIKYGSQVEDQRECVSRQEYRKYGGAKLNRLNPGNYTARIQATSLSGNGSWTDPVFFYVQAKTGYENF
# Protocol: Analytical size exclusion chromatography (SEC) with in-line static light scattering. […] All samples contained 25 μg of each protein diluted to a final volume of 50 μL in PBS, pH 7.2, before injection onto the SEC column onto a TSKgel G3000SW XL, 5 mm, 250 Å Analytical SEC column (Tosoh Biosciences) equilibrated in 10 mM phosphate, 150 mM NaCl, 0.02% sodium Azide at pH 6.8 using an Agilent 1100 HPLC system. Light scattering data for material eluting from the SEC column were collected using a miniDAWN static light scattering detector coupled to an in-line refractive index meter (Wyatt Technologies). Light scattering data were analyzed using the ASTRA V software provided by the manufacturer.
# All samples were diluted to a final volume of 50 μL in PBS, pH 7.2 before SEC/static light scattering analysis.
# sIGF-1R(1-903) [2] = target: T1, sIGF-1R(1-903); assay: ITC series titration, C06 MAb first
# Protocol: The protein solutions were prepared as described above for the MAb binding experiments. All ITC experiments were performed on an ITC₂₀₀ microcalorimeter (MicroCal, LLC) at 25° C. […] IGF-1R bispecific antibodies. A four minute equilibration period was used between all injections with an initial delay of 60 seconds. Numerical integration of the data was performed using the ITC data analysis software supplied by MicroCal (Origin). ΔHA° (T) values were calculated based on the difference between the average heat liberated/absorbed during the binding phase of the injections and the average heat of dilution found once the receptor, IGF-1R, was saturated with MAb or BsAb.
# Both the dimeric receptor and the bivalent MAbs contain two potential binding sites.
# [3] = target: T2, hIGF-1R-Fc mutant SD015 (H464E) (human, UniProt P08069 31-933); assay: SPR (Biacore relative RUmax) and tr-FRET competition
# T2 construct: not shown: human IgG1 Fc, C-terminal tag
# T2 sequence (P08069 31-933 H494E): as the sequence (P08069 31-933) above, with H464E counted along it
# Protocol: (§1) After, completion of the receptor-Fc loading step, flow rates were elevated to 5 μl/min. […] At the end of each sensorgram, the flow rate was elevated to 30 μl/min and the chip surface was regenerated by 2×10 μL injections of 0.1 M glycine, pH 2.
# human IGF-1R(1-903)-Fc [4] = target: T3, human IGF-1R(1-903)-Fc (human, UniProt P08069 31-933); assay: ELISA, blocking of 320 nM IGF-1 His on biotinylated hIGF-1R-Fc
# T3 construct: also called hIGF-1R-Fc; SDWT; not shown: human IgG1 Fc, C-terminal tag
# T3 sequence (P08069 31-933): as the sequence (P08069 31-933) above
# Protocol: hIGF-1R-Fc was biotinylated using EZ-Link Sulfo-NHS-LC-Biotin according to the protocol provided by the manufacturer (Pierce Cat. No. 21335). Biotinylated human IGF-1R Fc (NB12453-9) at 5 μg/ml was added to the wells of SigmaScreen streptavidin-coated 96-well plates (Sigma, Cat. No. M5432-5EA) at 100 μL/well and incubated overnight at 2-8° C. The plates were then washed four times with 200 μL/well PBST. […] The dilutions were added to the plates in duplicate at 100 μL/well and the plates were incubated at RT for 1 hour. The plates were then washed four times with 200 μL/well PBST. An HRP-conjugated anti-Histag antibody (Penta-His HRP Conjugate, QIAGEN, Cat. No. 1014992) was diluted 1:1000 in PBST and added to plates at 100 μL/well, and the plates were incubated at RT for one hour. The plates were then washed four times with 200 μL/well PBST. SureBlue Reserve TMB Microwell Peroxidase Substrate (KPL, Cat. No. 53-00-01) was added to plates at 100 μL/well followed by 1% phosphoric acid at 100 μL/well once the desired reaction was observed. The absorbance of each well was determined at 450 nm, and the results were normalized and plotted against the log of antibody concentration.
# human IGF-1R(1-903)-Fc [5] = target: T3, human IGF-1R(1-903)-Fc; assay: IGF-1 blocking ELISA at 20 nM IGF-1 His on biotinylated hIGF-1R-Fc
# Protocol: (§2) The dilutions were added to the plates in duplicate at 100 μL/well and the plates were incubated at RT for 1 hour. The plates were then washed four times with 200 μL/well PBST. An HRP-conjugated anti-Histag antibody (Penta-His HRP Conjugate, QIAGEN, Cat. No. 1014992) was diluted 1:1000 in PBST and added to plates at 100 μL/well, and the plates were incubated at RT for one hour. The plates were then washed four times with 200 μL/well PBST. SureBlue Reserve TMB Microwell Peroxidase Substrate (KPL, Cat. No. 53-00-01) was added to plates at 100 μL/well followed by 1% phosphoric acid at 100 μL/well once the desired reaction was observed. The absorbance of each well was determined at 450 nm, and the results were normalized and plotted against the log of antibody concentration.
# (§3) Ligand Blocking Properties.
# human IGF-1R(1-903)-Fc [6] = target: T3, human IGF-1R(1-903)-Fc; assay: IGF-1 blocking ELISA at 1280 nM IGF-1 His on biotinylated hIGF-1R-Fc
# Protocol: as §2, §3
# [7] = target: T4, human IGF-1R(1-902)-His10 (human, UniProt P08069 31-932); assay: SPR competition (Biacore 3000): soluble antibody titrated into 40 nM hIGF-1R-His, mixture injected over immobilized M13-C06
# T4 construct: Bought from R&D Systems (305-GR-050); also called hIGF-1R-His10; hIGF-1R-His
# T4 sequence (P08069 other isoform, or with tags, fused parts or gaps): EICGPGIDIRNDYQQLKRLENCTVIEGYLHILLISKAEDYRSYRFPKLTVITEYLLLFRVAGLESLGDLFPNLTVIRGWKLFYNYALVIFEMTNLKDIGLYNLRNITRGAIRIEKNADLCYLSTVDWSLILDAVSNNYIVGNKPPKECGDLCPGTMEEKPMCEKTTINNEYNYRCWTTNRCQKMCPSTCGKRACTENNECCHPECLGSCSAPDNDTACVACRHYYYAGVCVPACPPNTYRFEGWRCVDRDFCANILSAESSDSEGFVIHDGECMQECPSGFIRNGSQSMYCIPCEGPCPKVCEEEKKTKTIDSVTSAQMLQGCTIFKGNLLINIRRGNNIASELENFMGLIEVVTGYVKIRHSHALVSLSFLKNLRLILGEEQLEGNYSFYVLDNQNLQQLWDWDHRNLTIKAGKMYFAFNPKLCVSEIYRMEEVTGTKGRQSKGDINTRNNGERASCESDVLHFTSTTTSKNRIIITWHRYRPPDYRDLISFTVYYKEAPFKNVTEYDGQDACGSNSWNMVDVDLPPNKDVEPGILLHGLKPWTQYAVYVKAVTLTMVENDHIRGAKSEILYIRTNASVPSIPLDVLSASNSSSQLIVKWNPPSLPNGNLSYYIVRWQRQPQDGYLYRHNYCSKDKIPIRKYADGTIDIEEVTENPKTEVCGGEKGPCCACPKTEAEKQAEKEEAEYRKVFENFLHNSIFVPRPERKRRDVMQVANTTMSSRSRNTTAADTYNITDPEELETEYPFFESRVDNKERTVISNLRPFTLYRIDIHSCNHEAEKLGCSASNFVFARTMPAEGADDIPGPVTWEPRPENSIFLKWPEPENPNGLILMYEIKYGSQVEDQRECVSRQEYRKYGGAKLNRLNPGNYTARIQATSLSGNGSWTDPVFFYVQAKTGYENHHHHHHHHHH
# Protocol: Regeneration was achieved by three 10 μL injections of 0.1 M glycine, pH 2.0. 100% hIGF-1R-His binding to each antibody was determined by the signal above the baseline under mass transport-limiting conditions 60 seconds into the injection.
# [8] = target: T2, hIGF-1R-Fc mutant SD015 (H464E); assay: SPR (Biacore 3000): SD015 captured on immobilized M13-C06 surface, M13-C06 (Fab according to paragraph 695) injected at 0, 1, 3, 10 nM
# Protocol: as §1
Binder,molecular weight of the complex (sIGF-1R(1-903) [1]) [MDa],ΔH° (sIGF-1R(1-903) [2]) [kcal/mol],binding result [3],IC50 (human IGF-1R(1-903)-Fc [4]) [nM],IC50 (read off the curve) (human IGF-1R(1-903)-Fc [5]) [nM],IC50 (read off the curve) (human IGF-1R(1-903)-Fc [6]) [nM],IC50 (read off the curve) [7] [nM],binding result [8]
B1,2,-21.9,no binding,1.3,~1,~1,~30,
B2,,,,,,,,no binding (tested: 10 nM)
